This is an account of results in the FLAb antibody collection (doi:10.7554/elife.23156).

The chains are these.
B1: scFv; the commonest letter at each place (parent)
chain 1: EVKLDETGGGLVQPGRPMKLSCVASGFTFSDYWMNWVRQSPEKGLEWVAQIRNKPYNYETYYSDSVKGRFTISRDDSKSSVYLQMNNLRVEDMGIYYCTGSYYGMDYWGQGTSVTVS
chain 2: DVVMTQTPLSLPVSLGDQASISCRSSQSLVHSNGNTYLRWYLQKPGQSPKVLIYKVSNRFSGVPDRFSGSGSGTDFTLKISRVEAEDLGVYFCSQSTHVPWTFGGGTKLEIK

Variants of B1 are the subject of the data set “fluorescein”. Nature of the data set: Kd (Tite-Seq). Particulars: with fluorescein; format: scFv 4-4-20, heavy + light.
The variants in data set [1] derive from B1. In words: yeast surface expression (ratio to wild type); higher = more expressed. Particulars: format: scFv 4-4-20, heavy + light.

The Kd is the constant that tells how readily two partners part at equilibrium.

As for chain 1 G100S Y107A, the Kd in the data set with fluorescein was at least 10 µM. The yeast surface expression in data set [1] came out at 0.942.
The corresponding values for chain 1 G100S Y107D are at least 10 µM and 0.543.
Take chain 1 D106H G109K: in the data set with fluorescein, the Kd was at least 10 µM. Further, in data set [1], the yeast surface expression worked out at 0.265.
Taken in the same sequence, the figures for chain 1 W108S G109S were 5.96 µM and 0.37.
In the case of chain 1 W33I V37S, the Kd in the data set with fluorescein is at least 10 µM. Also, the yeast surface expression in data set [1] was 0.617.
As for chain 1 Y32K N35R, the Kd with fluorescein was at least 10 µM. In addition, in data set [1], the yeast surface expression worked out at 0.103.
Taken in the same sequence, the figures for chain 1 S101N M105P were at least 10 µM and 0.537.
Regarding chain 1 Y102L G104C, the Kd in the data set with fluorescein was at least 10 µM. The yeast surface expression in data set [1] was determined as 0.323.
On to chain 1 Y32A W36N, for which the equilibrium dissociation constant (Kd) in the data set with fluorescein was at least 10 µM. Moreover, the yeast surface expression in data set [1] came to 1.17.
Turning to chain 1 T28G N35C, the equilibrium dissociation constant (Kd) with fluorescein was at least 10 µM. In addition, the yeast surface expression in data set [1] stood at 0.586.
As to chain 1 S30F V37M, the Kd with fluorescein amounted to 0.00128 µM. For the same variant, the yeast surface expression in data set [1] amounted to 0.669.
In the case of chain 1 T28Q N35P, the dissociation constant Kd in the data set with fluorescein is 0.832 µM. Also, the yeast surface expression in data set [1] is 0.622.
chain 1 F29M S30H Y32S: the Kd with fluorescein was at least 10 µM. Also, the yeast surface expression in data set [1] was 0.982.
The corresponding values for chain 1 M34E N35H are 0.195 µM and 0.4.
Turning to chain 1 M105F D106C, the dissociation constant Kd with fluorescein was at least 10 µM. The yeast surface expression in data set [1] stood at 1.03.
Turning to chain 1 G104R G109C, the Kd with fluorescein was at least 10 µM. In addition, the yeast surface expression in data set [1] stood at 0.5.
On to chain 1 T28D W36Q, for which the Kd in the data set with fluorescein is at least 10 µM. Besides, the yeast surface expression in data set [1] came out at 0.456.
In the case of chain 1 W36T V37M, the Kd with fluorescein was at least 10 µM. For the same variant, in data set [1], the yeast surface expression came to 0.422.
For chain 1 W36T V37L, the equilibrium dissociation constant (Kd) with fluorescein is at least 10 µM. Besides, in data set [1], the yeast surface expression turned out to be 0.507.
Regarding chain 1 T28S M34N, the Kd with fluorescein was at least 10 µM. Also, the yeast surface expression in data set [1] is 0.645.
As to chain 1 Y32P M34N, the Kd with fluorescein was at least 10 µM. In data set [1], the yeast surface expression came to 0.503.
Taken in the same sequence, the figures for chain 1 Y103L W108D were at least 10 µM and 0.501.
Turning to chain 1 T28L W33Y, the Kd with fluorescein is at least 10 µM. Further, in data set [1], the yeast surface expression was 0.826.
In the case of chain 1 S30C Y32V, the Kd with fluorescein was at least 10 µM. For the same variant, the yeast surface expression in data set [1] was found to be 0.7.
chain 1 S101R Y107L: in the data set with fluorescein, the Kd was at least 10 µM. Moreover, in data set [1], the yeast surface expression came out at 0.862.
On to chain 1 W33C M34C W36A, for which the dissociation constant Kd in the data set with fluorescein was at least 10 µM. In data set [1], the yeast surface expression was found to be 0.449.
For chain 1 G104Y G109T, the Kd in the data set with fluorescein was at least 10 µM. Besides, the yeast surface expression in data set [1] was 0.0981.
Take chain 1 F29P Y32P: the Kd with fluorescein was at least 10 µM. In addition, the yeast surface expression in data set [1] came to 0.856.
Regarding chain 1 W108D, the Kd with fluorescein was at least 10 µM. Further, the yeast surface expression in data set [1] amounted to 0.345.
For the variant chain 1 Y102N Y103C, the Kd in the data set with fluorescein worked out at 4.14 µM. Also, the yeast surface expression in data set [1] was 0.692.
On to chain 1 Y103D G104Y, for which, in the data set with fluorescein, the Kd is at least 10 µM. In addition, the yeast surface expression in data set [1] came to 0.898.
On to chain 1 T28R V37P, for which, in the data set with fluorescein, the Kd is at least 10 µM. For the same variant, the yeast surface expression in data set [1] was 1.99.
Consider chain 1 N35F V37D, for which, in the data set with fluorescein, the Kd is at least 10 µM. For the same variant, the yeast surface expression in data set [1] came out at 0.704.
On to chain 1 F29G W36M, for which, in the data set with fluorescein, the Kd was at least 10 µM. Further, in data set [1], the yeast surface expression came out at 0.478.
Turning to chain 1 F29G D31R, the equilibrium dissociation constant (Kd) with fluorescein was at least 10 µM. Also, in data set [1], the yeast surface expression turned out to be 0.931.
Taken in the same sequence, the figures for chain 1 M34R V37Q were 0.205 µM and 0.276.
The corresponding values for chain 1 T28A W33R N35I are at least 10 µM and 0.622.
Turning to chain 1 T28Y S30P, in the data set with fluorescein, the dissociation constant Kd was 0.000804 µM. The yeast surface expression in data set [1] was 1.08.
Take chain 1 Y32D: in the data set with fluorescein, the Kd is at least 10 µM. In addition, in data set [1], the yeast surface expression came out at 1.04.
Taken in the same sequence, the figures for chain 1 Y32V were at least 10 µM and 1.02.
With chain 1 S101I W108E, in the data set with fluorescein, the dissociation constant Kd is at least 10 µM. Further, the yeast surface expression in data set [1] worked out at 0.21.
Consider chain 1 Y103A W108E, for which the equilibrium dissociation constant (Kd) in the data set with fluorescein is at least 10 µM. The yeast surface expression in data set [1] is 0.603.
For the variant chain 1 S30V Y32D, the equilibrium dissociation constant (Kd) with fluorescein is at least 10 µM. Further, the yeast surface expression in data set [1] was 0.745.
chain 1 D106N W108K: the Kd with fluorescein is at least 10 µM. In data set [1], the yeast surface expression amounted to 0.446.
In the case of chain 1 M34A N35I, the dissociation constant (Kd) with fluorescein was at least 10 µM. Also, the yeast surface expression in data set [1] is 0.267.
Taken in the same sequence, the figures for chain 1 T28I Y32T were at least 10 µM and 0.869.
Taken in the same sequence, the figures for chain 1 D31I were at least 10 µM and 0.531.
The corresponding values for chain 1 M34I W36Q are at least 10 µM and 0.283.
Regarding chain 1 M34I W36S, the equilibrium dissociation constant (Kd) with fluorescein was at least 10 µM. Further, in data set [1], the yeast surface expression amounted to 0.556.
With chain 1 S101T W108C, in the data set with fluorescein, the Kd is at least 10 µM. Further, the yeast surface expression in data set [1] was determined as 0.471.
With chain 1 D31L W33D, in the data set with fluorescein, the dissociation constant Kd was at least 10 µM. For the same variant, in data set [1], the yeast surface expression turned out to be 0.81.
For chain 1 M105L, in the data set with fluorescein, the Kd was found to be 0.00519 µM. In addition, the yeast surface expression in data set [1] amounted to 0.924.
chain 1 M105D: in the data set with fluorescein, the Kd is at least 10 µM. Also, in data set [1], the yeast surface expression is 0.695.
Taken in the same sequence, the figures for chain 1 G100D M105W W108Y were at least 10 µM and 0.168.
Taken in the same sequence, the figures for chain 1 F29C S30C were at least 10 µM and 0.693.
Take chain 1 Y103P M105K: in the data set with fluorescein, the dissociation constant (Kd) is at least 10 µM. Further, the yeast surface expression in data set [1] came out at 0.785.
Taken in the same sequence, the figures for chain 1 S30A W36H were at least 10 µM and 0.457.
